Results reported in PMC6887587.

Columns and labels:
[1] = target: FHR4/VHH(T) trifunctional heteromultimer, Clone 2E3 (first single-cell sorting) (human) (UniProt P04003); assay: SPR; Biacore 3000, CM5 chip; 10 000 RU of purified multimer immobilised by amine coupling; C3b 2.5, 5, 10 and 20 µg/mL injected in HBS-EP (10 mM Hepes pH 7.4, 150 mM NaCl, 3 mM EDTA, 0.05% P20) with 20 mM MgCl2, 5 min at 30 µL/min, 5 min dissociation; 1:1 Langmuir fit
[2] = target: FHR4/VHH(T) trifunctional heteromultimer, Clone IA3 (third single-cell sorting) (human); assay: as above

Sequence of UniProt P04003 (P04003 whole entry, looked up, one chain of several): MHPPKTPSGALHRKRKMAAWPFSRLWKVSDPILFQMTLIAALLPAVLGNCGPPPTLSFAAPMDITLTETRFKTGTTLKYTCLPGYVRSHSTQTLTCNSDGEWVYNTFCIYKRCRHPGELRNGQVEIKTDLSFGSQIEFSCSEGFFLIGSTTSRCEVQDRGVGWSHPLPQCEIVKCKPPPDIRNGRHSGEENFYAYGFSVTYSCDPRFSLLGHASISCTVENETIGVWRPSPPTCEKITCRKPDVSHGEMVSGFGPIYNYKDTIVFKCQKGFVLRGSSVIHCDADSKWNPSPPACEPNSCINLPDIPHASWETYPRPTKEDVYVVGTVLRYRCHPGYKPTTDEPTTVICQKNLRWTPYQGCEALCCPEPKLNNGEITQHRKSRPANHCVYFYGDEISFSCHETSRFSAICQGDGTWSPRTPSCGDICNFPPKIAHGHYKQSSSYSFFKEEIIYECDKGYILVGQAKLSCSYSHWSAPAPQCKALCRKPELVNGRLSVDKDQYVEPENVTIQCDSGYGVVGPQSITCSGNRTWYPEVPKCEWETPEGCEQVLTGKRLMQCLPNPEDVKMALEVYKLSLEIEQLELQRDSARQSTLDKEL

Substance: C3b (from UniProt P01024 749-1663; P01024 749-1663) (natural protein)
- Ka [1]: 3.65e+06 M⁻¹
- Kd [1]: 274 nM
- final C3b binding (RU) [1]: 58 RU
- maximum C3b binding at 20 µg/mL C3b (RU) [1]: 100 RU
- Ka [2]: 4.48e+06 M⁻¹
- Kd [2]: 223 nM
- final C3b binding (RU) [2]: 78.6 RU
- maximum C3b binding at 20 µg/mL C3b (RU) [2]: 136 RU
